Four molecules from publication PMC5027281 (Nature Communications, 2016) can be followed below.

Numbering of substitutions follows the chain as printed.

In test [1] the target is T1, Recombinant full-length HA of A/Perth/16/09 (H3-PE09) (influenza A virus A/Perth/16/09). In words: BLI. To be noted: both partners purified.
In test [2] the target is T1, Recombinant full-length HA of …. In words: BLI. The following applies: both partners purified. The source holds these as a separate data set.

B1: 3I14-GL IgG1 (VH and VL germline versions) (antibody, V domains shown)
VH: QVQLVESGGGVVQPGRSLRLSCAASGFTFSSYGMHWVRQAPGKGLEWVAVISYDGSNKYYADSVKGRFTISRDNSKNTLYLQMNSLRAEDTAVYYCAKLPSPYYYDSRFVWVAASYFDYWGQGTLVTVSS
VL: not shown
As usually defined, the Kd is the equilibrium constant for the complex coming apart. By koff is commonly meant a measure of how fast the partners let go of each other. For orientation: kon means a measure of how fast the partners come together. With B1, in test [1], the Kd stood at 4.02 nM, the koff was 0.000556 s⁻¹ and the kon is 139000 M⁻¹ s⁻¹.

B2: 3I14-gHmL IgG1 (germline heavy chain, mature light chain) (antibody, V domains shown)
VH: B1 VH
VL: NFMLTQPPSASGTPGQRVTISCSGSSSNIGGNTVHWFQQLPGTAPKLLIYTNSLRPSGVPDRFSGSKSGTSASLAISGLQSEDEADYYCAAWDDSLNGQVFGGGTKLTVL
In the case of B2, in test [1], the Kd worked out at 0.733 nM, the koff is 0.000125 s⁻¹ and the kon is 171000 M⁻¹ s⁻¹.

B3: 3I14-mHgL IgG1 (mature heavy chain, germline light chain) (antibody, V domains shown)
VH: QVQLLESGGGVVQPGRSLRLSCAASGFTFSNYGMHWVRQAPGKGLEWVAIISFDGSKKYYANSVKGRSTISRDNSKNTLSLQMNSLGPEDTALYYCAKLPSPYYFDSRFVWVAASAFHFWGQGILVTVSS
VL: not shown
For B3, in test [1], the Kd is 0.658 nM, the koff came out at 0.000126 s⁻¹ and the kon was 192000 M⁻¹ s⁻¹.

B4: 3I14 VLD94N variant IgG1 (antibody, V domains shown)
VH: B3 VH
VL: B2 VL with D94N
On to B4, for which, in test [2], the Kd turned out to be 0.308 nM, the koff is 5.44e-05 s⁻¹ and the kon stood at 177000 M⁻¹ s⁻¹.
